Patent US20230272086A1 (CHIA TAI TIANQING PHARMACEUTICAL GROUP, published 2023)
Where a chain is given by its changes, count along the chain named.

Tests used:
Experiment in all cases: ELISA, plate coated with 2 µg/mL receptor
[1] = target: T1, IL1R9/IL1RAPL2 (Sino biological, 10156-H08H) (UniProt Q9NP60 17-354)
T1 construct: Bought protein
T1 sequence (looked up): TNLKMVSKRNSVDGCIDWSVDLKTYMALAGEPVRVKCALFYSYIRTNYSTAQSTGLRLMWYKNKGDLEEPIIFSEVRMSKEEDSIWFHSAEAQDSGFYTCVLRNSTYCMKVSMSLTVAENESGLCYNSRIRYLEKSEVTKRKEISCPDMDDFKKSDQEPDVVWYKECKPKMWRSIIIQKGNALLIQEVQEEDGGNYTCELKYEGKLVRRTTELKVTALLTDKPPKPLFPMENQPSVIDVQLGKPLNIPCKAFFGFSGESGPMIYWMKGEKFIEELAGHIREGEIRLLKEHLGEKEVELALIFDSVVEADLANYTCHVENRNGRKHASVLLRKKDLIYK
Protocol: (§1) The anti-ST2 antibodies were diluted with PBS buffer to a concentration of 1.5 mg/mL. After being treated at 72° C. for 5 min, the samples were assayed by ELISA for their binding activity for an antigen The ELISA procedure is as follows: A 96-well plate was coated with 2 µg/mL hST2-ECD-mFc as the antigen at 100 µL/well and incubated at 4° C. overnight. After the antigen not adsorbed was well washed off, the non-specific binding sites were blocked with a blocking buffer (PBST containing 1% bovine serum albumin). After the plate was washed three times with a washing buffer (PBST, PBS containing 0.05% (v/v) Tween 20), the anti-ST2 antibodies (serially diluted 3-fold from an initial concentration of 1.5 µg/mL to 8 concentrations) were added at 100 µL/well, and the plate was incubated at 37° C. for 1 h. […] After the plate was incubated at room temperature for 5 min, a stop solution (2 N H₂SO₄) was added to stop the reactions. The signals were read at 450 nm using a plate reader (PE, Envision). The data were analyzed using GraphPad Prism5, and the EC₅₀ values were calculated.
(§2) ST2 belongs to the IL1R receptor family. The cross-reactivity of the anti-ST2 antibodies with the IL1R family receptors was determined by ELISA. The IL1R family receptors include IL1R⅟CD121a (Sino biological, 10126-H08H), IL1R2/CD121b (Sino biological, 10111-H08H), IL1R3/IL1RAP (Sino biological, 10121-H08H), IL1R7/IL-18RAcP (Sino biological, 10176-H08H), IL1R8/IL1RAPL1 (Sino biological, 10177-H08H), and IL1R9/IL1RAPL2 (Sino biological, 10156-H08H). ELISA assays were performed using the proteins described above as antigens (2 µg/mL). See Example 13 for the specific ELISA procedure. No binding means that the antibody remains unbound to the antigen when at the highest concentration.

[2] = target: T2, IL1R1/CD121a (Sino biological, 10126-H08H) (UniProt P14778 18-332)
T2 construct: Bought protein
T2 sequence (looked up): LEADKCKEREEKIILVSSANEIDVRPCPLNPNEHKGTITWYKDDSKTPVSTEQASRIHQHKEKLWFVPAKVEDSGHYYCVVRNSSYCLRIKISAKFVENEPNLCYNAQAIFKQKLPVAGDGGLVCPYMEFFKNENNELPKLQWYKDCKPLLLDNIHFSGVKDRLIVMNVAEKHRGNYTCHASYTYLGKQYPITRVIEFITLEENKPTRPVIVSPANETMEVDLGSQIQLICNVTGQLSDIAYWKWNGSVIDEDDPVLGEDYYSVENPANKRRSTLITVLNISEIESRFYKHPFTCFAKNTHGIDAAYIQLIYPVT
Protocol: as §1, §2

[3] = target: T3, IL1R7/IL-18RAcP (Sino biological, 10176-H08H) (UniProt O95256 20-356)
T3 construct: Bought protein
T3 sequence (looked up): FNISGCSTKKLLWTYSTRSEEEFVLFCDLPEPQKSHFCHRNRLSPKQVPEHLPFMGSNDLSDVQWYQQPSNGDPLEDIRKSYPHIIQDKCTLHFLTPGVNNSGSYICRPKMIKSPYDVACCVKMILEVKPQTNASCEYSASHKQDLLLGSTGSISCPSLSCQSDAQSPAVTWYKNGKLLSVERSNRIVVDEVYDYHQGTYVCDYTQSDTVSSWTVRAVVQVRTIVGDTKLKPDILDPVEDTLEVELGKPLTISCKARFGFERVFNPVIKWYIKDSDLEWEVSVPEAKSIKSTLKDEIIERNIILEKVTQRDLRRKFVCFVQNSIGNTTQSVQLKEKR
Protocol: as §1, §2

[4] = target: T4, IL1R3/IL1RAP (Sino biological, 10121-H08H) (UniProt Q9NPH3 21-359)
T4 construct: Bought protein
T4 sequence (looked up): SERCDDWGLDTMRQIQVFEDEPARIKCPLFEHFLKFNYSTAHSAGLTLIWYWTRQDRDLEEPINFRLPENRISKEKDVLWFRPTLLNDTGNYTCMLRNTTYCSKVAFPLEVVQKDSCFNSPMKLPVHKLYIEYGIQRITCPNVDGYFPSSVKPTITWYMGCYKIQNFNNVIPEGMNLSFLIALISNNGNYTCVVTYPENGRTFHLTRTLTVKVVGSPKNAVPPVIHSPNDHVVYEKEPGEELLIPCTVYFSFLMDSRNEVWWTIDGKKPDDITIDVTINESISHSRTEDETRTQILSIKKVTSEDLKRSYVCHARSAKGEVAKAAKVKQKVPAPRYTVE
Protocol: as §1, §2

[5] = target: T5, IL1R8/IL1RAPL1 (Sino biological, 10177-H08H) (UniProt Q9NZN1 19-357)
T5 construct: Bought protein
T5 sequence (looked up): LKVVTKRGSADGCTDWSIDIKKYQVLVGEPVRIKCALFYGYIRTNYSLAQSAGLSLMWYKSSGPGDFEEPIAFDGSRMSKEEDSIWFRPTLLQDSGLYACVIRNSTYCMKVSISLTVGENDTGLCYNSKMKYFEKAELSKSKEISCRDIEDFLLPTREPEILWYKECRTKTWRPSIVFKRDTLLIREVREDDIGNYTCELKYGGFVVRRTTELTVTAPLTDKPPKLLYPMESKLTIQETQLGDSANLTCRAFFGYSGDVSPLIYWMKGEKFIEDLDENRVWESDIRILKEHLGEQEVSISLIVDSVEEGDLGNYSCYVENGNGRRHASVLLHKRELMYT
Protocol: as §1, §2

Measured: binding result

B1: RG6149 (antibody Ab2 in CN104334582, prepared in-house) (antibody, human IgG2, kappa, V domains shown)
VH: EVQLVQSGAEVKKPGESLKISCKGSGYSFTNYWIGWVRQMPGKGLEWMGIIYPGNSDTRFSPSFQGQVTISADKSITTAYLQWSSLKASDTAMYYCARHGTSSDYYGLDVWGQGTTVTVSS
VL: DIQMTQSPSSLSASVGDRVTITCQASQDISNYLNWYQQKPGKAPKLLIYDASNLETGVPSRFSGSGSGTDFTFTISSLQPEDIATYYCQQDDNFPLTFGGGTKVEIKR
notes: Control anti-ST2 antibody
no binding: all assays above

B2: Humanized 31C8-1.1 (antibody, human IgG2, kappa, V domains shown)
VH: EVQLVQSGAEVKKPGATVKISCKASGYIFIDSEMHWVQQAPGKGLEWMGAIDPETGDTVYAEKFQGRVTITADKSSSTAYMELSSLRSEDTAVYYCTGSTTDYYFAYWGQGTLVTVSS
VL: DIQMTQSPSSLSASVGDRVTITCRSSKSLLHSNGIIYLYWYQQKPGKAPKLLIYQLSNLASGVPSRFSSSGSGTDFTLTISSLQPEDFATYYCAQNLELPFTFGQGTKVEIKR
notes: also called hz31C8-1.1; hz31C81-1.1
no binding: all assays above

B3: Humanized 31C8-1.2 (antibody, human IgG2, kappa, V domains shown)
VH: B2 VH with E1Q, E10K, E62K, Q65K
VL: B2 VL
notes: also called hz31C8-1.2; hz31C81-1.2
no binding: all assays above

B4: GSK3772847 (antibody STLM208 in CN104411333, prepared in-house) (antibody, human IgG2, kappa, V domains shown)
VH: EVQLLESGGGLVQPGGSLRLSCAASGFTFSIYDMIWVRQAPGKGLEWVSSIRGEGGGTYYADSVKGRFTISRDNSKNTLYLQMNSLRAEDTAVYYCARDPWSTEGSFFVLDYWGQGTLVTVSS
VL: EIVLTQSPATLSLSPGERATLSCRASQSVDDDLAWYQQKPGQAPRLLIYDASNRATGIPARFSGSGSGTDFTLTISSLEPEDFAVYYCQQYITAPLTFGQGTKVEIKR
notes: Control anti-ST2 antibody
not listed: [3]
no binding: all other assays above

B5: Chimeric 31C8 (antibody, human IgG2, kappa, V domains shown)
VH: QVQLQQSGPELVRPGASVTLSCKASGYIFIDSEMHWVKQTPVHGLEWIGAIDPETGDTVYNQKFKGKATLTADKSSSTASMELSSLTSEDSAVYYCTGSTTDYYFAYWGQGTTLTVSS
VL: DIVMTQAAFSNPVTLGTSASISCRSSKSLLHSNGIIYLYWYLQKPGQSPQLLIYQMSNLASGVPDRFSSSGSGTDFTLRISRVEAEDVGVYYCAQNLELPFTFGSGTKLEIKR
notes: also called xi31C8
no binding: all assays above
